According to patent US20190352375A1:

biological target: Hemagglutinin of AIV A/duck/It/775/04(H5N3) (Influenza A virus A/duck/Italy/775/2004(H5N3)); test: cell-based or functional assay

Row | Substance | HI titer
1 | mAb 8: Monoclonal Antibody to Influenza A (Hemagglutinin H5) H5N1 - Purified, Acris Antibodies AM00941PU-N | 1 µg/mL
2 | mAb 7: Monoclonal Antibody to Influenza A (Hemagglutinin H5) H5N1 - Purified, Acris Antibodies AM00945PU-N | 2 µg/mL
3 | mAb 9 (Pierce/Thermo Sci., Cat. No. MA1-81928) (antibody) | 7.8 µg/mL
